The values that follow come from US20250296994A1 (SYSMEX, published 2025).

The target of assay [1] is T1, human Crtac1A (human, UniProt Q9NQ79 28-661).
T1 construct: Recombinant protein (IB control sample) or native protein in human CSF and serum; also called rCrtac1A
T1 sequence: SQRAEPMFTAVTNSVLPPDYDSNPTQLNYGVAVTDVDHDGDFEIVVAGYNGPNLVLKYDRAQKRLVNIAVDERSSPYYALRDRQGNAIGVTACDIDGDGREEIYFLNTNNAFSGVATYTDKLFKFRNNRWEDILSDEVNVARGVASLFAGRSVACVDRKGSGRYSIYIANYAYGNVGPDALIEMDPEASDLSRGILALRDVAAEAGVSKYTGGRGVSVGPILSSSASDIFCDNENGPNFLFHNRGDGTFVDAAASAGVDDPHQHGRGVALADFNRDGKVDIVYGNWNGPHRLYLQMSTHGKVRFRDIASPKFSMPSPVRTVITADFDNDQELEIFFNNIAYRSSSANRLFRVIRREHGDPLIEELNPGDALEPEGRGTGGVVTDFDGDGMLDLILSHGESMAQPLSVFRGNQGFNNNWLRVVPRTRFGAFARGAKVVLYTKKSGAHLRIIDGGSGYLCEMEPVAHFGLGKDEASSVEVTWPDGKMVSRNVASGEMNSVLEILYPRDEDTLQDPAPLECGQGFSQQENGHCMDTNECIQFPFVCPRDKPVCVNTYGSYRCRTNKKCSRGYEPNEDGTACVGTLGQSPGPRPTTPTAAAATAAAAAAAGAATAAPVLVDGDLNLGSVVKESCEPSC
Description: immunoblotting (Wes) of denatured recombinant Crtac1A/1B and human CSF. How it is done: Study of specificity of monoclonal antibody to antigen (1) Immunoblotting (IB) analysis using a monoclonal antibody purified from the culture supernatant of hybridomas of clones 1B4 and 15C2 was performed on human cerebrospinal fluid (2 specimens: referred to as CSF1 and CSF2) by simple Western (registered trademark) system Wes (registered trademark) (Protein Simple Corporation). In the analysis by Wes, capillary electrophoresis and IB of the sample were performed fully automatically by the apparatus. Specific operations such as preparation of an electrophoresis sample, preparation of a diluent of a primary antibody, and analysis by an apparatus were performed according to the protocol attached to Wes. As a control sample, recombinant proteins of Crtac1A and Crtac1B were used. These recombinant proteins were prepared in the same manner as in Example 1. For comparison, analysis using an anti-rat LOTUS antibody (ITM, 45-12C) as a primary antibody was also performed.
In FIG. 5, “conventional antibody” represents the anti-rat LOTUS antibody, and “rCrtac1A/1B” represents recombinant proteins of Crtac1A and Crtac1B. […] However, when monoclonal antibodies derived from clones 1B4 and 15C2 were used, a band was not detected. In the electrophoresis sample, the protein in the sample was denatured by addition of a sample buffer and heating.
(Immunoblotting shows a protein as a band on a membrane.)

Assay [2] addresses T2, recombinant Crtac1B fragment #6 (human, UniProt Q9NQ79 28-606).
T2 construct: also called fCrtac1B (1-607)
T2 sequence: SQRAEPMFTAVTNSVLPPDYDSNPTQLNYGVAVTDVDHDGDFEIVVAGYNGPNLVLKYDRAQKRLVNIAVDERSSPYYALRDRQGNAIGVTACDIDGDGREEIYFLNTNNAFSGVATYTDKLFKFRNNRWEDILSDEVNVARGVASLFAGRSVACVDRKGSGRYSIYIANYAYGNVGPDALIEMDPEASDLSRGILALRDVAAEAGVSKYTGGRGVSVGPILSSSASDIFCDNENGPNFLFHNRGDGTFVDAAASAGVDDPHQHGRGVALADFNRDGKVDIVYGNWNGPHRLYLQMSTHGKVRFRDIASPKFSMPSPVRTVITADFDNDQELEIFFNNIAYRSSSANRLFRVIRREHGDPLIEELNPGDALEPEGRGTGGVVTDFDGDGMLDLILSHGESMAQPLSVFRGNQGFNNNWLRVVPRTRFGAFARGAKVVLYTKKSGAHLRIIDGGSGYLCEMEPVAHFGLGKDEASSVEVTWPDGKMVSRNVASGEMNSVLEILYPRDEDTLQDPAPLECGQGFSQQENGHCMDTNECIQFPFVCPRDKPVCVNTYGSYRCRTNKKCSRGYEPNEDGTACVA
Description: antigen immobilized ELISA, hybridoma culture supernatant, color development at 655 nm same as plate without antigen. Here is the method: A positive antigen (50 μL) and a negative control (50 μL) were added to each well of a 96 well plate, respectively. Then, the plate was incubated at 4° C. overnight, and the positive antigen and the negative control were immobilized in the well to obtain an antigen immobilized plate. Each well was washed twice with a washing solution (250 μL, 0.05% Tween (registered trademark) 20/20 mM potassium phosphate buffer (pH 7.4), 150 mM NaCl). To each well was added a blocking buffer (250 μL, 5% skim milk/20 mM potassium phosphate buffer (pH 7.4), 150 mM NaCl), and blocked at room temperature for 90 minutes. Culture supernatant (50 μL) of each hybridoma selected by primary screening was added to each well, and the cells were incubated at 37° C. for 1 hour. Each well was washed three times with a washing solution (250 μL). The HRP-labeled anti-mouse IgG antibody (MBL, product number 330) was diluted 1:1,000 with dilution buffer II (1% skim milk/20 mM potassium phosphate buffer (pH 7.4), 150 mM NaCl). A solution (50 μL) of this labeled antibody was added to each well, and the well was incubated at 37° C. for 1 hour. Each well was washed five times with a washing solution (250 μL). Chemical chromogenic substrate solutions (Bio-Rad, TMB Peroxidase EIA Substrate Kit) were added to respective wells at 50 μL, and the plate was allowed to stand at room temperature under shading for 30 minutes. The plate was set in a microplate reader (Thermo Fisher Scientific, Varioskan (registered trademark) Flash), and the color development intensity at 655 nm was measured for each well.
Reactivity of the monoclonal antibody contained in the culture supernatant of the hybridomas of clones 1B4 and 15C2 to the antigen was confirmed by ELISA using the 7 recombinant Crtac1B fragments described above. A specific operation was the same as that of the antigen immobilized ELISA method of Example 1. For comparison, ELISA was performed in the same manner using a 96 well plate in which no antigen was immobilized.
In addition, as to these monoclonal antibodies, the color development intensity when the recombinant Crtac1B fragments of #6 and #7 were used was substantially the same as that when a plate without immobilizing the antigen was used.
In general terms: An ELISA detects its analyte on a solid surface through an enzyme-linked reagent.

B1: 15C2 antibody (monoclonal antibody derived from the hybridoma of clone 15C2) (antibody, mouse IgG1, kappa, V domains shown)
VH: EVQLQQFGAELVKPGASVKISCKASGYTFTDYNMDWVKQSHGKSLEWIGDINPNYDSSSYNQKFKGKATLTVDKSSSTAYMELRSLTSEDTAVYYCTRSGGTYWGQGTLVTVSA
VL: DIQMNQSPSSLSASLGDTITITCHASQNINVWLSWYQQKPGNIPKLLIYKASNLHTGVPSRFSGSGSGTGFSLTISSLQPEDIATYYCQQAQSYPRTFGGGTKLEIKR
notes: Mouse IgG1; Used as hybridoma culture supernatant (ELISA) or purified from supernatant (IB, IP); also called anti-Crtac1B antibody; antibody of the present embodiment
As for B1, the binding result in assay [1] and in assay [2] was “no binding” each time.
